Laboratory results: patent US20260207732A1

Columns and labels:
[1] = target: Mut18 (Influenza A virus A/Brisbane/02/2018 (H1N1)); experiment: BLI (Octet), HA-foldon-His on Ni-NTA tips, IgG in solution
[2] = target: Mut17 (Influenza A virus A/Brisbane/02/2018 (H1N1)); experiment: as above
[3] = target: Mut23 (Influenza A virus A/Brisbane/02/2018 (H1N1)); experiment: as above
[4] = target: Mut27 (Influenza A virus A/Brisbane/02/2018 (H1N1)); experiment: as above
[5] = target: Mut10 (Influenza A virus A/Brisbane/02/2018 (H1N1)); experiment: as above
[6] = target: Mut24 (Influenza A virus A/Brisbane/02/2018 (H1N1)); experiment: as above
[7] = target: Mut18 (Influenza A virus A/Brisbane/02/2018 (H1N1)); experiment: BLI (Octet) after 7D37C and trypsin; HA on Ni-NTA tips
[8] = target: Mut17 (Influenza A virus A/Brisbane/02/2018 (H1N1)); experiment: as above
[9] = target: Mut23 (Influenza A virus A/Brisbane/02/2018 (H1N1)); experiment: as above
[10] = target: Mut27 (Influenza A virus A/Brisbane/02/2018 (H1N1)); experiment: as above
[11] = target: Mut10 (Influenza A virus A/Brisbane/02/2018 (H1N1)); experiment: as above
[12] = target: Mut24 (Influenza A virus A/Brisbane/02/2018 (H1N1)); experiment: as above
[13] = target: Mut24 (Influenza A virus A/Brisbane/02/2018 (H1N1)); experiment: BLI (Octet) after 7D37C and trypsin; footnote to the marked cell

**Q.** What does the source list for FI6v3 monoclonal antibody (IgG)?
**A.** Octet response (nm) [1]: 0.811 nm; Octet response (nm) [2]: 0.878 nm; Octet response (nm) [3]: 0.984 nm; Octet response (nm) [4]: 0.398 nm; Octet response (nm) [5]: 0.968 nm; Octet response (nm) [6]: 0.93 nm; Octet response (nm) [7]: 0.484 nm; Octet response (nm) [8]: 0.748 nm; Octet response (nm) [9]: 0.745 nm; Octet response (nm) [10]: 0.313 nm; Octet response (nm) [11]: 0.737 nm; Octet response (nm) [12]: 0.406 nm

**Q.** What does the source list for CR9114 monoclonal antibody (IgG)?
**A.** Octet response (nm) [1]: 0.731 nm; Octet response (nm) [2]: 0.814 nm; Octet response (nm) [3]: 0.901 nm; Octet response (nm) [4]: 0.337 nm; Octet response (nm) [5]: 0.805 nm; Octet response (nm) [6]: 0.872 nm; fold reduction of affinity (KD) against control [13]: 100 fold; Octet response (nm) [7]: 0.464 nm; Octet response (nm) [8]: 0.754 nm; Octet response (nm) [9]: 0.808 nm; Octet response (nm) [10]: 0.314 nm; Octet response (nm) [11]: 0.729 nm; Octet response (nm) [12]: 0.0617 nm
